Data on two molecules can be found in patent publication US8889621B2, “Inhibiting binding of FGF23 to the binary FGFR-Klotho complex for the treatment of hypophosphatemia” (New York University, priority 2009, dated 2014).

Experiment [1] concerns the target T1, binary FGFR1c-Klotho complex (UniProt O35082+P11362).
T1 construct: The ectodomain of murine Klotho (A35 to K982) was purified from culture media; FLAG (C); made in house; host or cells: E. coli (FGFR1c, FGF23); HEK293 (Klotho ectodomain)
T1 sequence (P11362 142-365): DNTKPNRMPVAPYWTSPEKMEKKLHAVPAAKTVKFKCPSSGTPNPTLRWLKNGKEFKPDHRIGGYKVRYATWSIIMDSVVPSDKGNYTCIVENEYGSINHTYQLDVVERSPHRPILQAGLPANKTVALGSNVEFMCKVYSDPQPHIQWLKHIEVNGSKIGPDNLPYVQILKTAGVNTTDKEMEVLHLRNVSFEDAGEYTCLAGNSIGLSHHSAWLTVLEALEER
T1 sequence (O35082 35-982): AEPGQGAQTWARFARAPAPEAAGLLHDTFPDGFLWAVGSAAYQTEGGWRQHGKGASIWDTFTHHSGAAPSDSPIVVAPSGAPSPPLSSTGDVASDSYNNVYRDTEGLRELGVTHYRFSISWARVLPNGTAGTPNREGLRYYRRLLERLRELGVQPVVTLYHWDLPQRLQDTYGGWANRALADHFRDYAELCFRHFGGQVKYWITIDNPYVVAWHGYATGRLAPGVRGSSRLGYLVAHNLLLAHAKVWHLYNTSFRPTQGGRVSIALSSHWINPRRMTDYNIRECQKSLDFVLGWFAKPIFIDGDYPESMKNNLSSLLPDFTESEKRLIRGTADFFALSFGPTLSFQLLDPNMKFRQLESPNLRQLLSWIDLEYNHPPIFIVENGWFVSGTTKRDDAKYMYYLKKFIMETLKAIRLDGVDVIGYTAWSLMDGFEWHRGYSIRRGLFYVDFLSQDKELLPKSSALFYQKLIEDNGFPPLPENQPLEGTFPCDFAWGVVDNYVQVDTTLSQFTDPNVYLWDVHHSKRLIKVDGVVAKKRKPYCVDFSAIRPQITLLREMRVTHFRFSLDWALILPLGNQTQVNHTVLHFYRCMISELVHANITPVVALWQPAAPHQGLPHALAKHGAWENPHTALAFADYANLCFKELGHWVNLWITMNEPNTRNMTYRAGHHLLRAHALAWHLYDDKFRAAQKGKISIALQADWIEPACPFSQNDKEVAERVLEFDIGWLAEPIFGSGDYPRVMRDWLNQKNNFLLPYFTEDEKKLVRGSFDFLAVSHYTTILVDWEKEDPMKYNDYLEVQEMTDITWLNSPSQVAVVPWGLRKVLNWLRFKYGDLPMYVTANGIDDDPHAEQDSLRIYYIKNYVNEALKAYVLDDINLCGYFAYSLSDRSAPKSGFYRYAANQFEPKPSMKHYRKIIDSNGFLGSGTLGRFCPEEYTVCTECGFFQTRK
Put plainly: SPR competition: FGFR1c-Klotho binding to immobilized FGF23^28-251. Set-up: species or system human FGFR1c, murine Klotho. The conditions noted are these: FGF21^168-209 at molar ratios of 6:1 and 10:1. The protocol: A variety of interaction or binding assays can be used to determine that an agent specifically binds the binary FGFR-Klotho complex, such as the SPR interaction analysis described below. One aspect of the present invention utilizes SPR analysis of FGF23 protein/peptide binding to the binary FGFR-Klotho complex. The SPR analysis involved FGF23 protein/peptide immobilization by amine coupling on flow channels of a chip. Proteins were injected over the chip at a flow rate of 50 μl min^−1, and at the end of each protein injection (180 s), HBS-EP buffer (10 mM HEPES-NaOH, pH 7.4, 150 mM NaCl, 3 mM EDTA, 0.005% (v/v) polysorbate 20; 50 μl min^−1) was flowed over the chip to monitor dissociation for 180 s. The chip surface was then regenerated by injecting 50 μl of 2.0 M NaCl in 10 mM sodium acetate, pH 4.5. […] For each protein injection over a FGF23 protein/peptide chip, the nonspecific responses from the FHF1B control flow channel were subtracted from the responses recorded for the flow channel onto which FGF23 protein/peptide was immobilized. To analyze FGF23 binding to the binary FGFR1c-Klotho complex, FGF23^28-251 was coupled to a chip, and increasing concentrations of 1:1 complex of the ectodomains of FGFR1c and Klotho in HBS-EP buffer were passed over the chip. To measure binding of the C-terminal tail of FGF23 to the binary FGFR1c-Klotho complex, FGF23^180-251 was immobilized on a chip, and increasing concentrations of 1:1 complex of the ectodomains of FGFR1c and Klotho in HBS-EP buffer were passed over the chip. To examine whether the C-terminal tail of FGF23 can compete with full-length FGF23 for binding to the binary FGFR1c-Klotho complex, FGF23^28-251 was immobilized on a chip. Increasing concentrations of FGF23^180-251 were mixed with a fixed concentration of 1:1 complex of the ectodomains of FGFR1c and Klotho in HBS-EP buffer, and the mixtures were passed over the chip. As a control, competition of FGF23 in solution with immobilized FGF23 for binding to the binary FGFR1c-Klotho complex was studied. Increasing concentrations of FGF23^28-251 were mixed with a fixed concentration of 1:1 complex of the ectodomains of FGFR1c and Klotho in HBS-EP buffer, and the mixtures were passed over the FGF23 chip. Competition of the FGF23 C-terminal tail peptide with full-length FGF23 for binding to the binary FGFR1c-Klotho complex was also studied using the “reverse” SPR assay format, where FGF23^180-251 was immobilized on a chip and mixtures of a fixed concentration of 1:1 complex of the ectodomains of FGFR1c and Klotho with increasing concentrations of FGF23^28-251 were passed over the chip. As a control, competition of FGF23 C-terminal tail peptide in solution with immobilized FGF23 C-terminal tail peptide for binding to the binary FGFR1c-Klotho complex was analyzed. Increasing concentrations of FGF23^180-251 were mixed with a fixed concentration of 1:1 complex of the ectodomains of FGFR1c and Klotho in HBS-EP buffer, and the mixtures were passed over the FGF23^180-251 chip. To verify the specificity of the interaction between the FGF23 C-terminal tail and the FGFR1c-Klotho complex, FGF23^28-251 was immobilized on a chip. Increasing concentrations of FGF21^168-209 were mixed with a fixed concentration of 1:1 complex of the ectodomains of FGFR1c and Klotho in HBS-EP buffer, and the mixtures were passed over the chip. In addition, the ability of the FGF23 C-terminal tail peptide to interfere with binary complex formation between βKlotho and either FGF19 or FGF21 was tested, as was its ability to interfere with ternary complex formation between βKlotho, FGFR, and either FGF19 or FGF21. FGF19^23-216 and FGF21^29-209 were immobilized on two flow channels of a chip. FGF23^180-251 and the ectodomain of βKlotho were mixed at a molar ratio of 2:1, and the mixture was injected over the chip. Next, FGF23^180-251 and the 1:1 complex of the ectodomains of FGFR1c and βKlotho were mixed at a molar ratio of 10:1, and the mixture was passed over the FGF19/FGF21 chip. […]

A further experiment addresses T2, FGFR1c (Homo sapiens, UniProt P11362).
T2 construct: made in house; host or cells: E. coli
T2 sequence (P11362 142-365): T1 sequence (P11362 142-365)
In words: SPR: FGFR1c ectodomain passed over immobilized Klotho ectodomain. The format is binding. The conditions noted are these: 25° C., HBS-EP buffer, read-out: dissociation constant (KD) of the FGFR1c-Klotho interaction. The protocol: Surface plasmon resonance (SPR) spectroscopy experiments were performed on a Biacore 2000 instrument (Biacore AB), and FGF23-FGFR1c-Klotho interactions were studied at 25° C. in HBS-EP buffer (10 mM HEPES-NaOH, pH 7.4, 150 mM NaCl, 3 mM EDTA, 0.005% (v/v) polysorbate 20). Proteins were immobilized by amine coupling on flow channels of research grade CM5 chips (Biacore AB). Proteins were injected over a CM5 chip at a flow rate of 50 μl min^−1, and at the end of each protein injection (180 s), HBS-EP buffer (50 μl min^−1) was flowed over the chip to monitor dissociation for 180 s. The chip surface was then regenerated by injecting 50 μl of 2.0 M NaCl in 10 mM sodium acetate, pH 4.5. […] For each protein injection over a Klotho chip, the nonspecific responses from the β-glucuronidase control flow channel were subtracted from the responses recorded for the Klotho flow channel. Similarly, for each protein injection over a FGF chip, the nonspecific responses from the FHF1B control flow channel were subtracted from the responses recorded for the FGF flow channel. […]
To analyze Klotho binding to FGFR1c, Klotho ectodomain was immobilized on a chip (˜29-35 fmole/mm^2 of flow channel). […] Maximal equilibrium responses were plotted against the concentrations of FGFR1c ectodomain (FIG. 1B), and from the fitted saturation binding curve the equilibrium dissociation constant (KD) was calculated. […]
(In general: In SPR one partner is held on a chip, and binding of the other changes the refractive index at the surface.)

A word on the Kd: it is a measure of binding affinity in units of concentration.

Entries after “also recorded” stand apart in the source; their conditions may differ.

Consider “FGF21^168-209: 42-amino acid long C-terminal tail of FGF21 (P168 to S209), expressed in E. coli (PGLPPALPEPPGILAPQPPDVGSSDPLSMVGPSQGRSPSYAS; left off: small tags and cut ends) [reference compound]”, for which the “inhibition of FGFR1c-Klotho binding to immobilized FGF23^28-251” value in experiment [1] was “failed to inhibit; also recorded: no inhibition”.

B1: Klotho: ectodomain of murine Klotho (A35 to K982) purified from HEK293 culture media (protein)
chain: T1 sequence (O35082 35-982)
modifications: left off: small tags and cut ends
notes: ectodomain of murine Klotho (A35 to K982) purified from HEK293 culture media
On to B1, for which, in the experiment with FGFR1c, the dissociation constant Kd worked out at 72 nM.
